In patent US20230399394A1 (SUNSHINE GUOJIAN PHARMACEUTICAL SHANGHAI, published 2023):

T1: IL-33 mutant protein K48A (human, UniProt O95760 112-270)
T1 construct: Prokaryotic expression
T1 chain: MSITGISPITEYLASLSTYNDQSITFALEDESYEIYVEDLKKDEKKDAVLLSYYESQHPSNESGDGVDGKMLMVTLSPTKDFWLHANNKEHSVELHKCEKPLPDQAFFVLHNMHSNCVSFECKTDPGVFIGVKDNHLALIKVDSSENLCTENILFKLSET

T2: IL-33 mutant protein S60A (human, UniProt O95760 112-270)
T2 construct: Prokaryotic expression; also called 560A
T2 chain: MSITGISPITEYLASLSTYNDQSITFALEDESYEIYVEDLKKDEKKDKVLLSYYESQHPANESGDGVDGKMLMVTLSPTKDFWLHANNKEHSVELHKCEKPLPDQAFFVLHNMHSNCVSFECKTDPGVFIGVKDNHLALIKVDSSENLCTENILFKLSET

T3: IL-33 mutant protein L50A (human, UniProt O95760 112-270)
T3 construct: Prokaryotic expression
T3 chain: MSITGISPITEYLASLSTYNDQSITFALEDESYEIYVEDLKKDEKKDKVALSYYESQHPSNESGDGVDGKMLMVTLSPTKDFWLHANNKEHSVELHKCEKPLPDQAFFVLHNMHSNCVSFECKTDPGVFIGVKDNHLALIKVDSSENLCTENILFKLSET

T4: IL-33 protein without any mutation (WT) (human, UniProt O95760 112-270)
T4 construct: Control of the alanine scan (four runs WT-1 to WT-4); also called WT-1; WT-2
T4 sequence: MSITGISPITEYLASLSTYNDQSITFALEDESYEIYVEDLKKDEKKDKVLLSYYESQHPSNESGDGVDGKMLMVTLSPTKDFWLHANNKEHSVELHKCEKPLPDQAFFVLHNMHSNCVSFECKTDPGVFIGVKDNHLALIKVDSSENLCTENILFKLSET

T5: Pep1 (human, N-terminal biotin)
T5 construct: Synthetic 20-mer of human IL-33
T5 peptide: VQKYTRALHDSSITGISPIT

T6: Pep3 (human, N-terminal biotin)
T6 construct: Synthetic 20-mer of human IL-33
T6 peptide: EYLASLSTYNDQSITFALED

T7: Pep4 (human, N-terminal biotin)
T7 construct: Synthetic 20-mer of human IL-33
T7 peptide: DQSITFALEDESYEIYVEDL

T8: Pep5 (human, N-terminal biotin)
T8 construct: Synthetic 20-mer of human IL-33
T8 peptide: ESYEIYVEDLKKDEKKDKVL

T9: Pep7 (human, N-terminal biotin)
T9 construct: Synthetic 20-mer of human IL-33
T9 peptide: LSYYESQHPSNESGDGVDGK

T10: Pep9 (human, N-terminal biotin)
T10 construct: Synthetic 20-mer of human IL-33
T10 peptide: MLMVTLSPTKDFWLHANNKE

T11: Pep11 (human, N-terminal biotin)
T11 construct: Synthetic 20-mer of human IL-33
T11 peptide: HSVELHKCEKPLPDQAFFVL

T12: Pep12 (human, N-terminal biotin)
T12 construct: Synthetic 20-mer of human IL-33
T12 peptide: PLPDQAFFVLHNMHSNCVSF

T13: Pep14 (human, N-terminal biotin)
T13 construct: Synthetic 20-mer of human IL-33
T13 peptide: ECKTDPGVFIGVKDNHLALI

T14: Pep15 (human, N-terminal biotin)
T14 construct: Synthetic 20-mer of human IL-33
T14 peptide: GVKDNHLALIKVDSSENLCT


Key:
[1] = target: T1, IL-33 mutant protein K48A; experiment: ELISA as Example 9; row K48A
Description: (§1) SA protein was diluted to 2 μg/mL to coat ELISA plate at 100 μL/well overnight at 4° C. The plate was washed with PBST (PBS containing 0.05% Tween20) for 3 times, and blocked with 2% BSA prepared in PBS at 200 μL/well, at room temperature for 2 h. After the plate was washed twice with PBST, IL-33-his-biotin protein was diluted to 1 μg/mL with 1% BSA prepared in PBST, and was added to ELISA plate at 100 μL/well. The plate was incubated at room temperature for 1 h, and each monoclonal antibody was diluted with 1% BSA prepared in PBST in a 3-fold gradient. The highest concentration of antibody was 10 μg/mL, and the antibody was diluted for 12 gradients. Each diluted monoclonal antibody was added to ELISA wells with 100 μL/well, and the plate was incubated at room temperature for 1 h. Each sample was added to duplicate wells in parallel. The plate was washed with PBST for 3 times, and HRP-anti human IgG Fc secondary antibody prepared with PBST was diluted at an appropriate ratio, and was added to ELISA wells at 100 μL/well. […] Each reaction solution was shaken uniformly and OD450 nm was read on a microplate reader. The data was analyzed and EC₅₀ was calculated.
(§2) Subsequently, according to the experimental method of Example 9, the affinity of the above mutant proteins to 874F7-Hu1 was determined, and IL-33 proteins (WT-1, WT-2, WT-3, and WT-4) without any mutation were set as controls.

[2] = target: T2, IL-33 mutant protein S60A; experiment: ELISA as Example 9; row S60A
Description: as §1, §2

[3] = target: T3, IL-33 mutant protein L50A; experiment: ELISA as Example 9; row L50A against WT-4
Description: as §1, §2

[4] = target: T4, IL-33 protein without any mutation (WT); experiment: ELISA as Example 9; row WT-4, the reference itself
Description: as §1, §2

Pep1 = target: T5, Pep1; experiment: ELISA, biotinylated peptide on streptavidin plate
Description: (§3) To determine the binding activity of antibody to each polypeptide fragment, the ELISA plate was pre-coated by biotin-avidin (SA) which was diluted in coating solution (50 mM carbonate coating buffer, pH 9.6) to 2 μg/ml at 4° C. overnight. The plate was washed with PBST for 3 times, and then blocked with 2% BSA prepared in PBS at room temperature for 2 h with 200 μL/well. The plate was washed once with PBST, and 864F3 and 874F7 with final concentrations of 10 μg/mL were added at 100 μL/well, respectively, and the plate was incubated at room temperature for 1 h. The plate was washed with PBST for 3 times, and the goat anti-mouse IgG labeled by HRP was added and placed at 37° C. for 30 min. After washing the plate with PBST for 3 times, the plate was patted on the absorbent paper to remove residual droplets as far as possible. 100 μl TMB developing solution was added to each well, and the plate was placed at room temperature (20±5° C.) for 5 minutes away from light; 50 μl 2M H₂SO₄ terminating solution was added to each well to terminate the substrate reaction. OD values were read at 450 nm on the microplate reader to analyze the binding ability of the antibody to each polypeptide fragment. The experimental results are shown in […]

Pep3 = target: T6, Pep3; experiment: ELISA, biotinylated peptide on streptavidin plate
Description: as §3

Pep4 = target: T7, Pep4; experiment: ELISA, biotinylated peptide on streptavidin plate
Description: as §3

Pep5 = target: T8, Pep5; experiment: ELISA, biotinylated peptide on streptavidin plate
Description: as §3

Pep7 = target: T9, Pep7; experiment: ELISA, biotinylated peptide on streptavidin plate
Description: as §3

Pep9 = target: T10, Pep9; experiment: ELISA, biotinylated peptide on streptavidin plate
Description: as §3

Pep11 = target: T11, Pep11; experiment: ELISA, biotinylated peptide on streptavidin plate
Description: as §3

Pep12 = target: T12, Pep12; experiment: ELISA, biotinylated peptide on streptavidin plate
Description: as §3

Pep14 = target: T13, Pep14; experiment: ELISA, biotinylated peptide on streptavidin plate
Description: as §3

Pep15 = target: T14, Pep15; experiment: ELISA, biotinylated peptide on streptavidin plate
Description: as §3

EC50 [1] [nM]	EC50 [2] [nM]	Affinity decline ratio [3] [fold]	Affinity decline ratio [4] [fold]	binding result (Pep1)	binding result (Pep3)	binding result (Pep4)	binding result (Pep5)	binding result (Pep7)	binding result (Pep9)	binding result (Pep11)	binding result (Pep12)	binding result (Pep14)	binding result (Pep15)	Binder
0.49	5.31	28.5	1											874F7-Hu1 (antibody, human IgG4 S228P, kappa, also called 874F7-Hul; humanized antibody 874F7-Hu1) heavy: not shown light: DIQMTQSPSSVSASVGDRVTITCLASQTIGAWLAWYQQKPGKSPKLLIYAATRLADGVPSRFSGSGSGTDFTLTISSLQPEDFATYYCQQLDSSPYTFGQGTKVEIKRTVAAPSVFIFPPSDEQLKSGTASVVCLLNNFYPREAKVQWKVDNALQSGNSQESVTEQDSKDSTYSLSSTLTLSKADYEKHKVYACEVTHQGLSSPVTKSFNRGEC
				no binding (tested: 10 µg/mL)	no binding (tested: 10 µg/mL)	no binding (tested: 10 µg/mL)	no binding (tested: 10 µg/mL)	no binding (tested: 10 µg/mL)	no binding (tested: 10 µg/mL)	no binding (tested: 10 µg/mL)	no binding (tested: 10 µg/mL)	no binding (tested: 10 µg/mL)	no binding (tested: 10 µg/mL)	874F7 (antibody, V domains shown, Murine hybridoma antibody purified on Protein G; also called murine antibody 874F7) VH: QVQLKESGPGLVAPSHSLSITCNVSGFSLSKYGVHWIRQIPGRGLDWLGVLRAGGSTGYNSALMSRLSISKDSSKSQVFLKMNDLRTDDTAVYFCVRDHYYYSSYGGFVYWGQGTLVTVSA VL: DIQMTQSPASQSASLGESVTITCLASQTIGAWLAWYRQQPGKSPQLLIYAATRLADGVPSRFSGSGSGTEFSFKINNLQAEDFVSYYCQQLDSSPYTFGGGTRLEM
